These results are taken from patent publication US11434267B2, “Peptides having reduced toxicity that stimulate cholesterol efflux” (The Regents of the University of California, priority 2013, dated 2022).

Entries after “also recorded” stand apart in the source; their conditions may differ.

For data set [1], the target named is T1, ABCA1 (Mus musculus, UniProt P41233).
T1 construct: treated (18 h) with a cAMP analog to induce ABCA1 protein expression; endogenous in cells; host or cells: J774 macrophages
In words: ABCA1-dependent cholesterol efflux from [3H]cholesterol-labeled J774 macrophages with and without cAMP. The data set is classed as cell-based. The note with it: J774, cAMP vs no cAMP; 10 μg/ml lipid-free.

The test system of data set [2] is human plasma. In words: Cholesterol efflux activity of human plasma treated with lipid-free peptide (J774 cells). It counts as cell-based. Conditions: plasma + 300 μg/ml peptide 5 min 4° C., diluted to 1%, cAMP treated J774. On the procedure: (FIG. 33). To test whether CS6253 exerts anti-atherogenic effects in a biological milieu, human plasma was exposed (5 min) to lipid-free peptide. Interactions of CS6253 with HDL in plasma and activity of plasma to stimulate cholesterol efflux was assessed; the latter using J774 macrophages labeled with [3H]cholesterol. Panel A—Cholesterol efflux activity of plasma treated with lipid-free peptides. Human plasma was incubated with 300 μg/ml peptides for 5 minutes (4° C.), diluted to 1% in serum-free RPMI-1640 culture medium and immediately added to [3H]cholesterol-labeled J774 cells. […] Panel B—Induction of preβ HDL upon treatment of human plasma with CS6253. Plasma was exposed to a small amount of peptide relative to endogenous apoA-I (1:10 mole ratio, respectively) and formation of preβ HDL assessed by 2D non-denaturing gradient gel electrophoresis (NDGGE) and western blot analysis. […] The results are consistent with the production of authentic preβ HDL particles composed entirely of endogenous apoA-I.
To test whether T6991-2 exerts anti-atherogenic effects in a biological milieu, human plasma was exposed (5 min) to lipid-free peptide. Interactions of T6991-2 with HDL in plasma and activity of plasma to stimulate cholesterol efflux was assessed using J774 macrophages labeled with [3H]cholesterol. Panel A—Cholesterol efflux activity of plasma treated with lipid-free peptides. […]

Data set [3] relates to C57Bl/6 mice. The data set is classed as in vivo. Conditions: 300 mg/kg IP, male chow-fed C57Bl/6 mice. On the procedure: The high-dose cytotoxic response of ATI-5261 observed in rat, rabbit and cynomolgus monkey is additionally recapitulated in mice (FIG. 4). Male chow-fed C57bl/6 mice were injected intraperitonelly (IP) with 30 or 300 mg/kg of lipid-fee ATI-5261. Blood was collected via the retro-orbital plexus 4 h after peptide injection and plasma subsequently obtained for measurement of CPK (Panel A) and ALT and AST activities (Panel B, ALT left bars, AST, right bars). Values are means±SD, n=4 mice per group.
This example illustrates that aromatic phenylalanine residues associated with the non-polar surface of ATI-5261 contributed to the majority of the peptide toxicity (FIG. 5). […] Blood was collected via retro-orbital plexus 4 h after injection for isolation of plasma. Levels of plasma CPK (Panel A), ALT (panel B) and AST (Panel C) were determined as described in FIG. 1. Values are means±SD, n=4 mice per group.
The concentrations of plasma lipids in C57Bl/6 mice following administration of the aliphatic analogs of ATI-5261 was also determined. […] All values (mg/dl) are means±SD, n=4, determined at 4 and 6 h post treatment with peptide.

Data set [4] deals with Wistar rats. In words: High-dose IV toxicity of ATI-5261 in rats (plasma ALT, AST, TG, cholesterol). The data set is classed as in vivo, rat. On the procedure:
Peptides or peptidomeimetics of the invention can be evaluated for toxicity using known assays. Examples of such assays are illustrated in the Examples section. Toxicity is typically assayed in a rat, rabbit, mouse, monkey or dog model. In an illustrative assay such as that described in Example 1, a peptide is administered intravenously using a rabbit or rat model at doses of 3, 30, and 300 mg/kg and vehicle alone is also administered at 48 hour intervals for a total of four injections. Safety chemistry panels including plasma alanine aminotransferase (ALT), aspartate amino transferase (AST), and creatine kinase (CK) can then be determined in the blood. The presence of elevated levels of these enzymes in the blood compared to control normal values is indicative of toxicity. A peptide of the invention is typically considered to be non-toxic or to have little toxicity, when the results using the highest dose, 300 mg/kg in this illustrative assay, are equivalent (fall within the standard deviation) of the values measured for the control animals that received vehicle alone, or are no more than 2 or 3 times background obtained with vehicle alone. In some embodiments, a toxicity assay is performed where the toxicity of a peptide of the invention is compared to that to ATI-5261. […]
Cytotoxicity of an HDL mimetic peptide ATI-5261 at high doses was evaluated in rats and rabbits (FIG. 1). […]

In data set [5] the test system is cynomolgus monkeys. In words: IV infusion toxicity of ATI-5261 in monkeys. It counts as in vivo, cynomolgus monkey. On the procedure: Male (upper panel) and female (lower panel) cynomolgus monkeys were administered ATI-5261 at a fixed dose of 100 mg/kg by IV infusion (60 min) every 96 hours for a total of 4 injections. Blood was collected 24 h post infusion and levels of plasma ALT, AST, creatine kinase (CPK), and total and indirect bilirubin determined. Values are expressed as a fold-increase vs. pre-dose levels.

Data set [6] concerns C57Bl/6 mice. Conditions: mouse, in vivo, ip, 300 mg/kg.

T1 sequence (P41233 whole entry): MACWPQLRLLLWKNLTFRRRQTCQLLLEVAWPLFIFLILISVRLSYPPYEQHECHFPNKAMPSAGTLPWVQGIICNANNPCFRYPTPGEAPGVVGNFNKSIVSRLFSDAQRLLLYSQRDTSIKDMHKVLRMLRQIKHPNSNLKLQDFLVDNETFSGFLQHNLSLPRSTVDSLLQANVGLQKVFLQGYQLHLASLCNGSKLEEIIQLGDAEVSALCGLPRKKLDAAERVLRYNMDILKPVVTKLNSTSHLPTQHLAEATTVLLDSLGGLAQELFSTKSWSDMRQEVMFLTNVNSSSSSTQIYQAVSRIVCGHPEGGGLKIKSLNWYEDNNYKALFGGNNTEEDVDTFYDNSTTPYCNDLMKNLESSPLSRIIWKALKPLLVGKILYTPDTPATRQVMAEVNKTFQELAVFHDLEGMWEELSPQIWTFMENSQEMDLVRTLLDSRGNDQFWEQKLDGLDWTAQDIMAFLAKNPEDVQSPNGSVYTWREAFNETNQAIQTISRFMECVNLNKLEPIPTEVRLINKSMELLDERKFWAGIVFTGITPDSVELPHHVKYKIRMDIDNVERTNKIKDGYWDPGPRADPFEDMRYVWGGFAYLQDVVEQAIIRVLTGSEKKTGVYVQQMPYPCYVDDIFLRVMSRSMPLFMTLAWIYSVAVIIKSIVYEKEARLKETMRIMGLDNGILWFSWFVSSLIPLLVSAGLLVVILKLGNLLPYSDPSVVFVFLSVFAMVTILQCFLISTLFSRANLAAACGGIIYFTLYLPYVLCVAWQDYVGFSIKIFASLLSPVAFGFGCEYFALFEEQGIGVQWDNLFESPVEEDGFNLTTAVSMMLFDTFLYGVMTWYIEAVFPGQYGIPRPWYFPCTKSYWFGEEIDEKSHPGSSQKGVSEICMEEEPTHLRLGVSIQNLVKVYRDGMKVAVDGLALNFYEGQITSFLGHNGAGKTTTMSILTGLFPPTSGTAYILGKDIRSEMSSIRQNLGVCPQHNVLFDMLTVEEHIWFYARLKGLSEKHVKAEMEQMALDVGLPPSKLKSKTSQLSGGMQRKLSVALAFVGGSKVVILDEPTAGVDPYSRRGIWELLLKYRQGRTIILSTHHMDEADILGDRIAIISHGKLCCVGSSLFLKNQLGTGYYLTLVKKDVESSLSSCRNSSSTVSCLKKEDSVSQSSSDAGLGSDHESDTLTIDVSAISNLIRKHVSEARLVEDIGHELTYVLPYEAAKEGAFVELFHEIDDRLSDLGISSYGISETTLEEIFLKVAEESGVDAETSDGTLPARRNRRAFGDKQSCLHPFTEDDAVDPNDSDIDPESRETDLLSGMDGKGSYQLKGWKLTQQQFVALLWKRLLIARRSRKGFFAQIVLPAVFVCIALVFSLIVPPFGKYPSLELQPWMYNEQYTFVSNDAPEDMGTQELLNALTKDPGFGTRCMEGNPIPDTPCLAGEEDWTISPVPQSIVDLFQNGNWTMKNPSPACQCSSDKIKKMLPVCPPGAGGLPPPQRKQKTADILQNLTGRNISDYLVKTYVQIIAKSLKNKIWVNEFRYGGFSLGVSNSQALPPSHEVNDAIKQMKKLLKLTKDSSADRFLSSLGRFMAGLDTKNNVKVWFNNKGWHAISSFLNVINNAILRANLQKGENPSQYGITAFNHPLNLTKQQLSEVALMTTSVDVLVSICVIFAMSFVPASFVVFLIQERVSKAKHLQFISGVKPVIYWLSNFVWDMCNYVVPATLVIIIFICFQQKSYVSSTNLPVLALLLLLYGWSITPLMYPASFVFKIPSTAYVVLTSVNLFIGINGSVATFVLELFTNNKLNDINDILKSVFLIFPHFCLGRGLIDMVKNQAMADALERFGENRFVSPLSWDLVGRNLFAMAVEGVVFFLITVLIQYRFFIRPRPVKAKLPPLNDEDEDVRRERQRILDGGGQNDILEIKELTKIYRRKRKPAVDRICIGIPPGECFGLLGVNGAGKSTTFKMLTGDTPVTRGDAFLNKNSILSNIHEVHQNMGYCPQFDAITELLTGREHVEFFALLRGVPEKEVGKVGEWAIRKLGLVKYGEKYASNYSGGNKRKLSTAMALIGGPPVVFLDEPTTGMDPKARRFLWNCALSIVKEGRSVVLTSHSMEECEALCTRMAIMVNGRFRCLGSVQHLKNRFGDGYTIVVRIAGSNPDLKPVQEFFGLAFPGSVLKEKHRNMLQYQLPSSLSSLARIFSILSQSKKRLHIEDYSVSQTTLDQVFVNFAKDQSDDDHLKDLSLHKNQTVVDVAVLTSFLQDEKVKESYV

On to “ATI-5261: HDL mimetic peptide, parent peptide with phenylalanine and arginine residues; toxic at high doses; used as positive control (EVRSKLEEWFAAFREFAEEFLARLKS)”, for which the “ABCA1-dependent cholesterol efflux activity” value in data set [1] is reported as “stimulated an overall greater efflux response; also recorded: stimulated a greater efflux response”. In addition, the “capacity of treated plasma to stimulate cholesterol efflux via ABCA1” value in data set [2] was “possessed greater capacity to stimulate cholesterol efflux”. In data set [3] (4 and 6 h), the “TG elevating effect (plasma TG, cholesterol)” value is “marked increase in plasma TG, total and unesterified (free) cholesterol (FC)”. Further, in data set [3] (4 h), the “cytotoxic/toxic response (plasma CPK, ALT, AST)” value is on record as “High levels of cytotoxic markers”. Moreover, in data set [4] (IV), the “plasma triglycerides and unesterified cholesterol” value was “increased plasma triglycerides and cholesterol”. The “cytotoxic response (plasma ALT, AST)” value in data set [4] (IV 3, 30, 300 mg/kg at 48 h intervals, 4 injections) was “induced a cytotoxic response”. Besides, the “cytotoxic response (ALT, AST, CPK, bilirubin)” value in data set [5] (100 mg/kg IV infusion (60 min) every 96 hours, 4 injections, 24 h post infusion) is “induced a cytotoxic response”. In data set [5] (100 mg/kg IV infusion, after the first infusion, male and female), the “plasma creatine kinase, fold-increase vs. pre-dose” value is reported as “marked increase”. Besides, in data set [6], the “triglyceride (TG)” value is listed as “triglyceride (TG) elevation effects”.
